This note sets out measurements from article PMC10570326.

In this assay the target is OmpK36 (UniProt Q48473). As to the kind of experiment: crystal structure; laser-shaped cylindrical crystal, S-SAD at a wavelength of 4.13 Å, resolution limited to 2.7 Å.

Consider “OmpK36 (from UniProt Q48473 22-363) (natural protein)”, for which the stoichiometry N came out at 3.

Broadly, the stoichiometry N is the number of molecules, sites or subunits per partner or assembly.
